The target in the series is T1, Aiolos (GST fusion) (Mus musculus, UniProt O08900 SEQ:1-507).
T1 chain: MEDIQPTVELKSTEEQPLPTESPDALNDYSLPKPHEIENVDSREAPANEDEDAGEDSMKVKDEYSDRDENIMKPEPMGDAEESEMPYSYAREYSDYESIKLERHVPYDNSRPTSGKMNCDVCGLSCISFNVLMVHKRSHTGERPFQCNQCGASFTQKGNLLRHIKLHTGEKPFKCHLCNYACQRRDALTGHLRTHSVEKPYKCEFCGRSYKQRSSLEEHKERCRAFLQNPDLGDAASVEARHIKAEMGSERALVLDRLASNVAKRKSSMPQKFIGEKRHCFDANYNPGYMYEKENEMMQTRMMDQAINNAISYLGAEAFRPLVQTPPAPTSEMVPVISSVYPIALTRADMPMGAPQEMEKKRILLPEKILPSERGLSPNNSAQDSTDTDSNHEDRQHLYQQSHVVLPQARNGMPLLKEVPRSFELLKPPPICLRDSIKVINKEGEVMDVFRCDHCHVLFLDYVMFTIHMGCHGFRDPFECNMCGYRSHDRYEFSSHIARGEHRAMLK
In words: EMSA; 0.5 ug protein, 1-2 ng DNA; binding stated generally for Ikaros consensus sites. The following applies: tags: GST. The procedure:
DNA binding assays (EMSA) were performed essentially as described in Molnar et al. (1994) Mol. Cell. Biol. 14, 8292-8303. GST-Aiolos and Ikaros fusion proteins and their GST fusion partner (0.5 μg) were tested for binding to the IkBD1-[…] (SEQ ID NO:11) oligonucleotide which contains a high affinity Ikaros binding site (100,000 cpm/reaction which equals 1 to 2 ngs of DNA). Competition assays were performed with Ik-BS 1 and with Ik-BS8 TCAGCTTTTGGGggTACCCTGTCA (SEQ ID NO:12) oligonucleotides used at 5-100× molar excess.
On the technique in general: In EMSA bound probe runs differently from free probe, usually more slowly.

B1: IkBS1 (dsDNA)
DNA 1: TCAGCTTTTGGGAATACCCTGTCA
DNA 2: TGACAGGGTATTCCCAAAAGCTGA
As to B1, the binding result was “binds”.
